From patent US6989144

Biological target: GPVI on baboon platelets (baboon)
Assay: flow cytometry, washed baboon platelets; positive control

B1: convulxin (Cvx) purified from the venom of Crotalus durissus terrificus (ligand)
chain 1: GLHCPSDWYYYDQHCYRIFNEEMNWEDAEWFCTKQAKGAHLVSIKSAKEADFVAWMVTQNIEESFSHVSIGLRVQNKEKQCSTKWSDGSSVSYDNLLDLYITKCSLLKKETGFRKWFVASCIGKIPFVCKFPPQC
chain 2: GFCCPSHWSSYDRYCYKVFKQEMTWADAEKFCTQQHTGSHLVSFHSTEEVDFVVKMTHQSLKSTFFWIGANNIWNKCNWQWSDGTKPEYKEWHEEFECLISRTFDNQWLSAPCSDTYSFVCKFEA
Baboon fluorescence intensity: 72
Baboon platelets % positive: 95%
